This data set has as its system MS2 coat protein. Put plainly: apparent KD of MS2 coat protein; designed switch direction (-1 OFF switch, 1 ON switch): -1; higher = weaker reporter binding. Summed up:
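Apparent KD, taken as the median over clusters for each design, was obtained by curve-fitting normalised cluster fluorescence. Designed RNA switches had been transcribed on Illumina chips by stalled E. coli RNA polymerase and titrated with SNAP-549-labelled MS2 coat protein, doubling from 0.7 or 1.5 nM to 3 µM.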

Setting [1] is: Eterna round: R95, input ligand: microRNA oligo, concentration not stated.
[2] abbreviates: input ligand: microRNA oligo, concentration not stated.
[3] abbreviates: Eterna round: R95, input ligand: FMN 200 uM.
[4] abbreviates: Eterna round: R95, input ligand: none.

Regarding “CCAAGCUUCUUCAUUAUCCACAUGAGGAUCACCCAUGUCUUGGCAAUUAUGACCUGCCCGUCAGGAGCUCGUCUUAU [Sensor-V1 #38] (Eterna round: R97, puzzle: Sensor, turn-off variant 1)”, the “apparent KD of MS2 coat protein” value is, setting by setting: (input ligand: FMN 200 uM) 806 nM; (input ligand: none) 951 nM.
Turning to “CCAGAGGAAGGAUAUUAAGGCGUAUACAUGAGGAUCACCCAUGUCCUACACUUCGCACUAUAAGAAGGUUCCCGGA [Eternabot (Original) Solution 39] (Eterna round: R97, puzzle: Exclusion 5)”, the “apparent KD of MS2 coat protein” value was found to be 193 nM (input ligand: FMN 200 uM) and 121 nM (input ligand: none).
With “CCAGCAAGUUCAGCUCGUCACAUGAGGAUCACCCAUGUUAAGUAAUCCUUCUCUUCUAGGUAGCGCCGGAGAGAGGG [Eternabot (Original) Solution 16] (Eterna round: R97, puzzle: Sensor, turn-off variant 1)”, the “apparent KD of MS2 coat protein” value reads like this: (input ligand: FMN 200 uM) 32.6 nM; (input ligand: none) 43.3 nM.
Take “CCAGCGUAUGUAAGGAUAUGCUGGUCGAAAGAUCAGCAGAAGGUACAUGAGGAUCACCCAUGUGUAAUCGUUGG [Mod of JL 5 - Jieux - Brourd's mod of Exclusion 4] (Eterna round: R97, puzzle: Brourd's mod of Exclusion 4)”: the “apparent KD of MS2 coat protein” value was 52.7 nM (input ligand: FMN 200 uM) and 18.9 nM (input ligand: none).
In the case of “CCAUACCGAGGAUAUACAUGAGGAUCACCCAUGUCAAAACCACGUGUACGGCGGUCUUGUAGAAGGCGGAAAUA [Onbisodi] (puzzle: Exclusion 3)”, the “apparent KD of MS2 coat protein” value under setting [1] was found to be 9.99 nM.
As for “CCAUGGGAGCGAGGAUAUAGCCCAUGGGAAGAACUAGAAGGCGCAGACAUGAGGAUCACCCAUGUGUUCAUGAGGAGGUGGACA (Eterna round: R96, puzzle: Exclusion NG 1)”, the “apparent KD of MS2 coat protein” value is, setting by setting: (input ligand: FMN 200 uM) 153 nM; under setting [2], 82.6 nM; (input ligand: none) 121 nM.
Taken in the same sequence, the figures for “CCAUGGGAGCGAGGAUAUAGCCCAUGGGAAGAGCUAGAAGGCGCUGACAUGAGGAUCACCCAUGUGUUCAUGAGGAGGUGGACA (Eterna round: R96, puzzle: Exclusion NG 1)” were 292 nM, 128 nM and 173 nM.
Consider “CCAUGUUAGCAGGAUAUGCAAUAAAUCUUUUAAGCAGAAGGGCUUACAUGAGGAUCACCCAUGUAUAAUUUCAA [JR_E6_Sub080] (puzzle: Exclusion 6)”, for which the “apparent KD of MS2 coat protein” value under setting [1] is 42.6 nM.
Take “CCCACAAGCUUUUUGCUCGACAUGAGGAUCACCCAUGUUGAAUGGGUUAUAUGUGUGUGAUACAUAUAUAUGUACCU [-24.7, -47.9 kcal, A 26%] (Eterna round: R97, puzzle: Sensor, turn-off variant 1)”: the “apparent KD of MS2 coat protein” value is 23.2 nM (input ligand: FMN 200 uM) and 23.5 nM (input ligand: none).
Taken in the same sequence, the figures for “CCCAUGCCCGAGGAUAUGCUGUACAAAAGUACUGCAGAAGGCGGGACAUGAGGAUCACCCAUGUGGCGAAAGCC [Omei Ex G7] (Eterna round: R97, puzzle: Exclusion 6)” were 11.5 nM and 124 nM.
In the case of “CCCGGAUCAACUCCCGGGAACAACAUGAGGAUCACCCAUGUCUAGGAUAUCCACCAGUCAAUAAAGGAGAAGGAGACGGUGGUU [Raesessoqu] (Eterna round: R96, puzzle: Exclusion NG 3)”, the “apparent KD of MS2 coat protein” value (input ligand: FMN 200 uM) turned out to be 32.5 nM, the “apparent KD of MS2 coat protein” value under setting [2] was 23.3 nM and the “apparent KD of MS2 coat protein” value (input ligand: none) was 30.5 nM.
For “CCCUCACAUGAGGAUCACCCAUGUCAGGAUAUCUAGUCAGACAGUGUAGCACUAAUGAAGAGAAGGGACGUAUG [Edtetidi] (puzzle: Exclusion 1)”, the “apparent KD of MS2 coat protein” value under setting [1] came to 23.9 nM.
Consider “CCCUGACAUGAGGAUCACCCAUGUUAGGAUAUAACAUUUGACACGACAGUGUGAAGUGUUAGAAGGGAUAUGGG [-28.4, -26.7 kcal, A 31%] (Eterna round: R97, puzzle: Exclusion 1)”, for which the “apparent KD of MS2 coat protein” value is 36.2 nM (input ligand: FMN 200 uM) and 22.1 nM (input ligand: none).
As for “CCGAAUAUGUAGGAUAUCGUAUCGGAAACGAUACGAGAAGGGCAAACAUGAGGAUCACCCAUGUUCCUUAACGG [Fiskers Ex 6 - 13] (puzzle: Exclusion 6)”, the “apparent KD of MS2 coat protein” value worked out at 16.3 nM under setting [3], 15.1 nM under setting [1] and 14.2 nM under setting [4].
Regarding “CCGACAAGCUGCUAAGGAUACAUGAGGAUCACCCAUGUCGGUAUCCGAGAGGUAUUGAAGUCAACCAUCGCUCGUCU [Eternabot (Original) Solution 49] (Eterna round: R97, puzzle: Sensor, turn-off variant 1)”, the “apparent KD of MS2 coat protein” value (input ligand: FMN 200 uM) turned out to be 167 nM and the “apparent KD of MS2 coat protein” value (input ligand: none) was found to be 188 nM.
On to “CCGACAUGAGGAUAUCCAUCUGGAUCAGACUAGAUCCUGAUGGAGAAGGUACAUGAGGAUCACCCAUGUUACGG [Eli 4x 4.46] (Eterna round: R97, puzzle: Exclusion 4)”, for which the “apparent KD of MS2 coat protein” value (input ligand: FMN 200 uM) stood at 372 nM and the “apparent KD of MS2 coat protein” value (input ligand: none) worked out at 330 nM.
In the case of “CCGACCUGAGGAUAUAGCGUCCGCGACAUGAGGAUCACCCAUGUCCCUCAUAACGUAAAACUAGAAGGUAGAGUCG [Eternabot (L1) Solution 75] (Eterna round: R97, puzzle: Exclusion 5)”, the “apparent KD of MS2 coat protein” value was determined as 29.8 nM (input ligand: FMN 200 uM) and 25.7 nM (input ligand: none).
Turning to “CCGAGGUGGCGGUCCUAUGACAUGAGGAUCACCCAUGUACCUCGCCACGAGCUUUUUGCUCACCUUAUAAUUCUCGG [Ragequen] (puzzle: Sensor v3, turn-off variant 1)”, the “apparent KD of MS2 coat protein” value reads like this: under setting [3], 18.7 nM; under setting [1], 17.6 nM; under setting [4], 19.4 nM.
Take “CCGCAAAUGCAGGAUAUCGUAUCGGAAACGAUACGAGAAGGGUAAACAUGAGGAUCACCCAUGUUCCUUAACGG [Mat - Exclusion 6 - Eli Mod - D98] (Eterna round: R96, puzzle: Exclusion 6)”: the “apparent KD of MS2 coat protein” value by setting is: (input ligand: FMN 200 uM) 15.5 nM; under setting [2], 13.1 nM; (input ligand: none) 18.1 nM.
“CCGCAAAUGCAGGAUAUCGUAUCGGAAACGAUACGAGAAGGGUAAACAUGAGGAUCACCCAUGUUCCUUAACGG [Mat - Exclusion 6 - Eli Mod - D98] (puzzle: Exclusion 6)”: under setting [1], the “apparent KD of MS2 coat protein” value stood at 16.3 nM.
Same read-out and setting: the result for “CCGCAAAUGUAGGAUAUCGUAUCGGAUACGAUACGAGAAGGGCAUACAUGAGGAUCACCCAUGUGUCCUAGCGG [Fiskers Ex 6 - 44] (puzzle: Exclusion 6)” reads 12 nM; that for “CCGCCACAUGAGGAUCACCCAUGUCAGGAUAUCUAUCAUAGCAUCGAAAGAUGCGGGUAGAGAAGGGACUAUCC [ChP Ext 10-04-2015 #6] (puzzle: Exclusion 1)”, 28.1 nM.
“CCGCCAUGAGGAUAUUAGUAGUAGUCAGAAAAGACUAUUACUGAGAAGGCACAUGAGGAUCACCCAUGUAGCGG [Mat - Exclusion 4 - Eli Mod - D50] (Eterna round: R97, puzzle: Exclusion 4)”: the “apparent KD of MS2 coat protein” value (input ligand: FMN 200 uM) was 18.8 nM and the “apparent KD of MS2 coat protein” value (input ligand: none) worked out at 41 nM.
“CCGCUGUGAGGAUAUUAGUAGUAGUCAGAAUAGACUAUUACUGAGAAGGCACAUGAGGAUCACCCAUGUAGCGG [Eli x4 4.25] (Eterna round: R97, puzzle: Exclusion 4)”: the “apparent KD of MS2 coat protein” value amounted to 24.8 nM (input ligand: FMN 200 uM) and 28.9 nM (input ligand: none).
Take “CCGGAAAGGGAGGAUAUAGGAGUCGAUAGACACCUAGAAGGUCUGACAUGAGGAUCACCCAUGUGUCCUACCGG [Fiskers Ex 6 - 90] (puzzle: Exclusion 6)”: the “apparent KD of MS2 coat protein” value came out at 20.3 nM under setting [3], 19.9 nM under setting [1] and 19.8 nM under setting [4].
For “CCGGAAAUAGAGGAUAUCGUAUCGGAUACGAUACGAGAAGGCUGUACAUGAGGAUCACCCAUGUGUCCUACCGG [Fiskers Ex 6 - 58] (puzzle: Exclusion 6)”, under setting [1], the “apparent KD of MS2 coat protein” value was determined as 11.3 nM.
With “CCGGAAAUGCAGGAUAUCGUAUCGGAUACGAUACGAGAAGGGUAGACAUGAGGAUCACCCAUGUGUCCUACCGG [Fiskers Ex 6 - 50] (puzzle: Exclusion 6)”, the “apparent KD of MS2 coat protein” value is, setting by setting: under setting [3], 110 nM; under setting [1], 78.6 nM; under setting [4], 101 nM.
Regarding “CCGGAACAUGAGGAUCACCCAUGUCAGGAUAUUCCAAAAUCGUCGAUAGACGAUAACAGGAGAAGGGACACCGG [Mat - Exclusion 1 - Eli Mod - D30] (Eterna round: R97, puzzle: Exclusion 1)”, the “apparent KD of MS2 coat protein” value turned out to be 20.4 nM (input ligand: FMN 200 uM) and 15.7 nM (input ligand: none).
On to “CCGGAACAUGAGGAUCACCCAUGUGAGGAUAUCGUACGUUCGUCGAAAGACGAUCGUACGAGAAGGCAUGCCGG [Eli x1 4.34] (Eterna round: R97, puzzle: Exclusion 1)”, for which the “apparent KD of MS2 coat protein” value is, setting by setting: (input ligand: FMN 200 uM) 19.6 nM; (input ligand: none) 27.7 nM.
For the sequence “CCGGAAUUACAGGAUAUAGGAGUCGAUAGACACCUAGAAGGGUAGACAUGAGGAUCACCCAUGUGUCCUACCGG [Fiskers Ex 6 - 85] (puzzle: Exclusion 6)”, the “apparent KD of MS2 coat protein” value under setting [1] came out at 176 nM.
As for “CCGGAUAUGCAGGAUAUCGUAUCGGAAACGAUACGAGAAGGGUAUACAUGAGGAUCACCCAUGUGUCCUACCGG [Fiskers Ex 6 - 20] (puzzle: Exclusion 6)”, under setting [1], the “apparent KD of MS2 coat protein” value was 23.8 nM.
In the case of “CCGGCAUAGGAGGAUAUAGGAGUCGAUAGACACCUAGAAGGCCUGACAUGAGGAUCACCCAUGUGUCCUACCGG [Fiskers Ex 6 - 97] (puzzle: Exclusion 6)”, under setting [1], the “apparent KD of MS2 coat protein” value amounted to 12.5 nM.
“CCGGCUGCUGUGAGGAUAUGCCUGUGGGCCCGCGGGCAGAAGGCACAUGAGGAUCACCCAUGUCCUGCGGUCCC [salish99_bmx4_r4_117] (Eterna round: R97, puzzle: Brourd's mod of Exclusion 4)”: the “apparent KD of MS2 coat protein” value runs as follows: (input ligand: FMN 200 uM) 35 nM; (input ligand: none) 33.5 nM.

Values taken from the supplement of paper PMC9170038.
